{"source": "patent US20190241648A1", "about": "(STATEN BIOTECHNOLOGY B V, published 2019)", "binders": {"B1": {"name": "anti-ApoC3 antibody 14C7 (antibody, V domains shown)", "VH": "QVQVQESGPGLVKPSQTLSLTCTVSGGSITTNSYYWSWIRQPPGKGLEWMGAIDYSGDTYYSPSLKSRTSISRDTSKNQFTLQLTSVTPEDTAVYYCVSRIPTGEYWGQGTQVTVSS", "VL": "QTVVTQEPSLSVSPGGTVTLTCGLNSGSVTSSNYPDWYQQTPGQAPRLLIYNTNSRHSGVPSRFSGSISGNKAALTITGAQPEDEADYYCALYMGSDSVVFGGGTHLTVL", "notes": "it was detected with goat anti-human IgG (Fc); also called mAb 14C7; llama antibody 14C7"}}, "experiment_in_all_cases": "peptide microarray", "key": {"ApoC3 peptide … R40A": {"target": "T1, ApoC3 peptide … R40A (human, not fully specified (bridges); also: cyclic constrained)", "T1 peptide": "AAGWVTDGFSSLK", "outline": "(§1)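 Peptide microarrays of ApoC3-derived peptides incubated with antibody samples, then stained with goat anti-human IgG (Fc) DyLight680 (1:5000) and anti-HA DyLight800 (1:2000) control. Read-out by fluorescence scanning at intensities 7/7 (red/green); a secondary-only pre-stain checked background, HA frame peptides served as quality control.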"}, "ApoC3 peptide … S49A": {"target": "T2, ApoC3 peptide … S49A (human, not fully specified (bridges); also: cyclic constrained)", "T2 peptide": "ARGWVTDGFSALK", "outline": "as §1"}, "ApoC3 peptide … T44C": {"target": "T3, ApoC3 peptide … T44C (human, not fully specified (bridges); also: cyclic constrained)", "T3 peptide": "ARGWVCDGFSSLK", "outline": "as §1"}, "ApoC3 peptide … L50C": {"target": "T4, ApoC3 peptide … L50C (human, not fully specified; cyclic constrained)", "T4 peptide": "ARGWVTDGFSSCK", "outline": "as §1"}, "ApoC3 peptide … S48D": {"target": "T5, ApoC3 peptide … S48D (human, not fully specified; cyclic constrained)", "T5 peptide": "ARGWVTDGFDSLK", "outline": "as §1"}, "ApoC3 peptide … T44E": {"target": "T6, ApoC3 peptide … T44E (human, not fully specified (bridges); also: cyclic constrained)", "T6 peptide": "ARGWVEDGFSSLK", "outline": "as §1"}, "ApoC3 peptide … V43F": {"target": "T7, ApoC3 peptide … V43F (human, not fully specified; cyclic constrained)", "T7 peptide": "ARGWFTDGFSSLK", "outline": "as §1"}, "ApoC3 peptide … T44F": {"target": "T8, ApoC3 peptide … T44F (human, not fully specified (bridges); also: cyclic constrained)", "T8 peptide": "ARGWVFDGFSSLK", "outline": "as §1"}, "ApoC3 peptide … G46F": {"target": "T9, ApoC3 peptide … G46F (human, not fully specified (bridges); also: cyclic constrained)", "T9 peptide": "ARGWVTDFFSSLK", "outline": "as §1"}, "ApoC3 peptide … S49F": {"target": "ApoC3 peptide … S49F (human, cyclic constrained)", "outline": "as §1"}, "ApoC3 peptide … W42G": {"target": "T10, ApoC3 peptide … W42G (human, not fully specified (bridges); also: cyclic constrained)", "T10 peptide": "ARGGVTDGFSSLK", "outline": "as §1"}, "ApoC3 peptide … T44G": {"target": "T11, ApoC3 peptide … T44G (human, not fully specified (bridges); also: cyclic constrained)", "T11 peptide": "ARGWVGDGFSSLK", "outline": "as §1"}, "ApoC3 peptide … T44H": {"target": "T12, ApoC3 peptide … T44H (human, not fully specified (bridges); also: cyclic constrained)", "T12 peptide": "ARGWVHDGFSSLK", "outline": "as §1"}, "ApoC3 peptide … G46H": {"target": "T13, ApoC3 peptide … G46H (human, not fully specified (bridges); also: cyclic constrained)", "T13 peptide": "ARGWVTDHFSSLK", "outline": "as §1"}, "ApoC3 peptide … A39I": {"target": "T14, ApoC3 peptide … A39I (human, cyclic constrained)", "T14 peptide": "IRGWVTDGFSSLK", "outline": "as §1"}, "ApoC3 peptide … W42I": {"target": "T15, ApoC3 peptide … W42I (human, not fully specified (bridges); also: cyclic constrained)", "T15 peptide": "ARGIVTDGFSSLK", "outline": "as §1"}, "ApoC3 peptide … D45I": {"target": "T16, ApoC3 peptide … D45I (human, cyclic constrained)", "T16 peptide": "ARGWVTIGFSSLK", "outline": "as §1"}, "ApoC3 peptide … D45K": {"target": "T17, ApoC3 peptide … D45K (human, cyclic constrained)", "T17 peptide": "ARGWVTKGFSSLK", "outline": "as §1"}, "ApoC3 peptide … R40L": {"target": "T18, ApoC3 peptide … R40L (human, not fully specified (bridges); also: cyclic constrained)", "T18 peptide": "ALGWVTDGFSSLK", "outline": "as §1"}, "ApoC3 peptide … G41M": {"target": "T19, ApoC3 peptide … G41M (human, also: cyclic constrained)", "T19 peptide": "ARMWVTDGFSSLK", "outline": "as §1"}, "ApoC3 peptide … F47N": {"target": "T20, ApoC3 peptide … F47N (human, not fully specified (bridges); also: cyclic constrained)", "T20 peptide": "ARGWVTDGNSSLK", "outline": "as §1"}, "ApoC3 peptide … S48N": {"target": "ApoC3 peptide … S48N (human, cyclic constrained)", "outline": "as §1"}, "ApoC3 peptide … G46P": {"target": "T21, ApoC3 peptide … G46P (human, not fully specified (bridges); also: cyclic constrained)", "T21 peptide": "ARGWVTDPFSSLK", "outline": "as §1"}, "ApoC3 peptide … D45R": {"target": "T22, ApoC3 peptide … D45R (human, cyclic constrained)", "T22 peptide": "ARGWVTRGFSSLK", "outline": "as §1"}, "ApoC3 peptide … L50R": {"target": "T23, ApoC3 peptide … L50R (human, not fully specified (bridges); also: cyclic constrained)", "T23 peptide": "ARGWVTDGFSSRK", "outline": "as §1"}, "ApoC3 peptide … G41S": {"target": "T24, ApoC3 peptide … G41S (human, also: cyclic constrained)", "T24 peptide": "ARSWVTDGFSSLK", "outline": "as §1"}, "ApoC3 peptide … K51S": {"target": "T25, ApoC3 peptide … K51S (human, not fully specified; cyclic constrained)", "T25 peptide": "ARGWVTDGFSSLS", "outline": "as §1"}, "ApoC3 peptide … A39T": {"target": "T26, ApoC3 peptide … A39T (human, not fully specified (bridges); also: cyclic constrained)", "T26 peptide": "TRGWVTDGFSSLK", "outline": "as §1"}, "ApoC3 peptide … S48T": {"target": "ApoC3 peptide … S48T (human, cyclic constrained)", "outline": "as §1"}, "ApoC3 peptide … G46V": {"target": "T27, ApoC3 peptide … G46V (human, thioether (positions not given here); also: cyclic constrained)", "T27 peptide": "ARGWVTDVFSSLK", "outline": "as §1"}, "ApoC3 peptide … K51V": {"target": "T28, ApoC3 peptide … K51V (human, not fully specified; cyclic constrained)", "T28 peptide": "ARGWVTDGFSSLV", "outline": "as §1"}}, "note": "Ends that are not written are not given here."}
{"binder": "B1", "values": [{"measurement": "% of binding to wild-type peptide", "setting": "ApoC3 peptide … R40A", "result": 50.1, "unit": "%"}, {"measurement": "% of binding to wild-type peptide", "setting": "ApoC3 peptide … S49A", "result": 2.43, "unit": "%"}, {"measurement": "% of binding to wild-type peptide", "setting": "ApoC3 peptide … T44C", "result": 0, "unit": "%"}, {"measurement": "% of binding to wild-type peptide", "setting": "ApoC3 peptide … L50C", "result": 0, "unit": "%"}, {"measurement": "% of binding to wild-type peptide", "setting": "ApoC3 peptide … S48D", "result": 71.6, "unit": "%"}, {"measurement": "% of binding to wild-type peptide", "setting": "ApoC3 peptide … T44E", "result": 0, "unit": "%"}, {"measurement": "% of binding to wild-type peptide", "setting": "ApoC3 peptide … V43F", "result": 68.9, "unit": "%"}, {"measurement": "% of binding to wild-type peptide", "setting": "ApoC3 peptide … T44F", "result": 0, "unit": "%"}, {"measurement": "% of binding to wild-type peptide", "setting": "ApoC3 peptide … G46F", "result": 0.86, "unit": "%"}, {"measurement": "% of binding to wild-type peptide", "setting": "ApoC3 peptide … S49F", "result": 0.89, "unit": "%"}, {"measurement": "% of binding to wild-type peptide", "setting": "ApoC3 peptide … W42G", "result": 107, "unit": "%"}, {"measurement": "% of binding to wild-type peptide", "setting": "ApoC3 peptide … T44G", "result": 0, "unit": "%"}, {"measurement": "% of binding to wild-type peptide", "setting": "ApoC3 peptide … T44H", "result": 0.92, "unit": "%"}, {"measurement": "% of binding to wild-type peptide", "setting": "ApoC3 peptide … G46H", "result": 1.81, "unit": "%"}, {"measurement": "% of binding to wild-type peptide", "setting": "ApoC3 peptide … A39I", "result": 52.3, "unit": "%"}, {"measurement": "% of binding to wild-type peptide", "setting": "ApoC3 peptide … W42I", "result": 27.9, "unit": "%"}, {"measurement": "% of binding to wild-type peptide", "setting": "ApoC3 peptide … D45I", "result": 2.04, "unit": "%"}, {"measurement": "% of binding to wild-type peptide", "setting": "ApoC3 peptide … D45K", "result": 39.4, "unit": "%"}, {"measurement": "% of binding to wild-type peptide", "setting": "ApoC3 peptide … R40L", "result": 54.2, "unit": "%"}, {"measurement": "% of binding to wild-type peptide", "setting": "ApoC3 peptide … G41M", "result": 18.7, "unit": "%"}, {"measurement": "% of binding to wild-type peptide", "setting": "ApoC3 peptide … F47N", "result": 0.06, "unit": "%"}, {"measurement": "% of binding to wild-type peptide", "setting": "ApoC3 peptide … S48N", "result": 48.5, "unit": "%"}, {"measurement": "% of binding to wild-type peptide", "setting": "ApoC3 peptide … G46P", "result": 0, "unit": "%"}, {"measurement": "% of binding to wild-type peptide", "setting": "ApoC3 peptide … D45R", "result": 20.1, "unit": "%"}, {"measurement": "% of binding to wild-type peptide", "setting": "ApoC3 peptide … L50R", "result": 0, "unit": "%"}, {"measurement": "% of binding to wild-type peptide", "setting": "ApoC3 peptide … G41S", "result": 18.7, "unit": "%"}, {"measurement": "% of binding to wild-type peptide", "setting": "ApoC3 peptide … K51S", "result": 27.5, "unit": "%"}, {"measurement": "% of binding to wild-type peptide", "setting": "ApoC3 peptide … A39T", "result": 88.7, "unit": "%"}, {"measurement": "% of binding to wild-type peptide", "setting": "ApoC3 peptide … S48T", "result": 88.3, "unit": "%"}, {"measurement": "% of binding to wild-type peptide", "setting": "ApoC3 peptide … G46V", "result": 0, "unit": "%"}, {"measurement": "% of binding to wild-type peptide", "setting": "ApoC3 peptide … K51V", "result": 3.85, "unit": "%"}]}
